Source: patent US5739281

Target: natural affinity purified heavy chain class I K^d molecules
Test: binding to natural class I heavy chain molecules, format not given (follows the binding inhibition experiment)

affinity, times lower than that of the (human) β2-microglobulin: 5 times lower
Substance: Recombinant murine β2-microglobulin
